Reference: the DeepSol protein solubility set

Assay: soluble on expression in E. coli; label from the status in PepcDB or PDB records
For “MGSDKIHHHHHHMSHLQTSNLPFKQRVDQQVHNEIMRKAVVNAQETIGQNRQKMVDELGHWEEWRDLSKQFRNHVLANLDAYLYQLSEKVKQNGGHVFFAETAEEATAYIRKVALAQKAKTIVKSKSMVTEEIGMNHVLEAEGINVVETDLGEYLLQIVGDKPSHIVVPAIHKDRHRIRKELHEKLGYTGSEQPEEMNAFVRKTLRKDFLNADIGISGCNFAVAETGSVCLVTNEGNLRLATTLPKTHIAVMGMERLAPTFKEVDALITMLCRSAVGAKLTAYNTWLTGPRLEGETDGPEDFHLVIVDNGRSKILASEFAEVLRCIRCGACLNTCPAYRQIGGHGYGSIYPGPIGAVISPLLGGYDEFKDLPYACSLCTACNSVCPVKIPLAQLILKHREKLVEEGRTPKGEQLAIKGFSFANSHPSLWGAGVKIGAKIAAKFIKNGKAPLQPGALGEWTKARDLPNPEGQSFREWFANRK”, the “soluble on expression in E. coli” value was “not soluble”.
With “MGSDKIHHHHHHMSILTVSNLSHGFGDRAIFEDVSFRLLKGEHIGLVGANGEGKSTFMNIITSQLEPDEGKVEWAKHVRVGYLDQHAVLSKGLTIRDALKGAFQYLFDIEQEINDLYTKMGEVEPDELEKMLEEVGVLQDILTNNDFYTIDAKVEEIARGLGLDEIGLDRDVQELSGGQRTKILLAKLLLEKPDILLLDEPTNYLDVQHIEWLKRYLNDYENAFILISHDIPFLNSVINLIYHMENQGLNRYVGDYDNFLTVHEAKKKQHESAFKRQQQEISELKDFVARNKARVSTRNMAMSRQKKLDKMDVIELAQERPKPEFHFQTARTPSKLMFEAKGLVIGYDEPLSRPLDLMIERGQKIALHGANGIGKSTLLKSLLGEIPSVSGTVERGENLHIGYFEQEIKEKNSNTCIEEIWGTFPSLTQQQVRAMLAKCGLMTKHIESKIEVLSGGEKAKVRLCKLMNTESNILVLDEPTNHLDVEAKEELKRALQEYKGTVLLISHEPEFYEAVATDLWNCESWTTKVF” the “soluble on expression in E. coli” value was “not soluble”.
For “MGSDKIHHHHHHMSIMNFSEYQTQALKTDQIPAVEGTELMIPLLGLVGEVGSLMTEYKKHLRDGDAHKLFKEGIAEELGDMLWYISNLASKFNLNLEEIAEDNLRKCRDRWGWRDSAQIEDKGTTYIFDNDFPENESLPRQFEVEITEISKDNSIKMKAFINKKQVGNDLTDNSYTSDGYRFHDVFHFSYAAVLGWSAVTRSMLKRKRKSNSSIDEVEDGGRAIAIEEGISALIFSYAKNHGFLERVSTLDYQILKTIKNMTCHLEVSQCSLGDWEKAILMGYDVWRQVEKNRGGRVVLDLDARLITYLKKSSLCSASVEIKH”, the “soluble on expression in E. coli” value was “not soluble”.
In the case of “MGSDKIHHHHHHMSKANFPTDPALTAIAIAYRNRRMIADEVLPRTPVAKQEFTYLHYNLGEGFTVPNARVGRTSRPNQVEFGATQLTSSTEDFALDAPVPLVDIANKPTNYNPKGRATEQTTNLIELGREVRTANLVFNKKSYANGLTKTLSGNNQWSHDDSKPIADLLSALDTPVMRPNIMVLGQKAATALRTNKSIIKAYNGSLGDEGLVPLEYLKELFELEDIYVGQALINTVNQAKKAVLQQAWGNHCALIYRDRLADTNGGTTFGLTAQFGSREVRDIFDENMGMRGGYNVRVGESVKELITAPDLGFFLENVIA”, the “soluble on expression in E. coli” value is reported as “not soluble”.
In the case of “MGSDKIHHHHHHMSKIVEVSKSPYAKLKTIPVGSVRVNGFMGKYFETLVNVTLPTQYDLLENTGRLDNFRIAAGKMEGSYKTLFPFDDTDVYKWAETVSFALANRKLPELEKILDSVIEEVKAAQDEDGYLGTYLSGDRKKERWTNLAWNHELYNAGHLIQAAVAHRRVTGKNTLFEVAKRFADHIYNTFGPEKKEGAPGHPEVEMALVELYRETGDRKYLDLARYFIYARGKGLASVPRNPGPEYFIDHKPFVELEEITGHAVRALYLCSGATDLYLETGDEKIWQALNRLWENFVTKKMYITGGAGSRHDWESFGEEYELPNRRSYAESCASIANFMWNFRMLLATGDGKFADVMEQVLYNGLLSGISLDGKHYFYFNPLEDYGRTRRQKWFDCACCPPNLARFIVSFPGYMYTTSDDGVQVHLYEKSTARLDFKGSVVEIEQETDYPWSGEVAFTIKTDIEEPFSIYLRLPSWADDFVLRVDGKAVIAKPQNGYVKLSQSWKGKHTVELSLPMKAVFIEAHPFVRDDLGKAAVKRGPVVYCIEQADNPDFHVWTLVLNSESLKEEKGKILDREAVFLKGTGRALDISEWEGKLYRKLSEVREKTVEFTLIPYHMWANREPGAMAVWLKR”, the “soluble on expression in E. coli” value is reported as “not soluble”.
For “MGSDKIHHHHHHMSKKQEEIAIKEQRLLSMMEENELEGICLSRAANFAWLTAGSNNRVVWGQETGAAALVIVEGRKFLVAPQNEIERLMLEQVADLGFEPWTYEWYEDRQQAIARLVGNKKIGSDIPLGNWPVIEAELKRLRFSLTDHEVERAEKLAAICSDDLAAVCQAIVPGWSEWNIQVELSNRLLKQGVRASVLLVGADDRTRFKHPLPTLNPVCNYVIIGLVGEQCGLHMALTRSIYFGRVPEALRQNYNCCLAVERTYWENSVVDADSQKVFQQGINAYADLGHPEEWKRHHQGGAIGYAPREFRAGEGRREVMQDRQMLAWNPTVENTKCEDTCLVTPTGLKSMTTVPSWWPTTTVKAGNINFLRPLILEK”, the “soluble on expression in E. coli” value was “not soluble”.
For “MGSDKIHHHHHHMSKLKDYNIDKVIIFNNLSTKTKNQLKEKVKLKRLQKKEILFYEKDSLDSVYILLEGKVSIFKISENGERKVIFILNSGEVINDITLDASKNSTVGCEAFENSIVAYYSIEEFLEIMQNDFQLTKDIISYMERRIRRLYRQLKNSISIKVDKKLAAKLYRLSREFGVCCGEWTLLNVNITVTYLADMLGCKRETVSRMIKVLQKEELIKIDNKGFYVKETELSRYFKNN”, the “soluble on expression in E. coli” value was “not soluble”.
With “MGSDKIHHHHHHMSKSHAVVHSALADEASQHNNTLSWFDITPADQERVRSLAPIADHVGEEIIADFYAHILRFEDAAQQFADDTQIERVKRGQKKYFQELINAELDESYAEERKRIGGIHERAGITPTLYVGSYAYYLQRLSQSILENGKEDPHKLFGLVLSMMKIAHYDMALALETYVEAREKTIEIHERQMRELPTPVLELREGLLLVPVVGALDSHRARTLTMQLLDGIRDTRSRAVVLDITGAVSIDSSVANHLFQAMTAARLMGAKSILAGISPTVAQELFRIGVDTKTFTTARNLQQGIELAASALEAHSKHSV” the “soluble on expression in E. coli” value was “not soluble”.
In the case of “MGSDKIHHHHHHMSKTLSILVLHRVPFENVGYDQVIDHDLHQVTYLGLASPMSKLPKDLPCHKVVIEQLDLLVDSAVALTQEQGIEFDYIIGVSEYQLFDAALIRERLNIQGPKPHDVLRVRDKLVMKHQVQAAGLHVPRFFELAEVMTQELTGLQQLILKPKDGASSENVIKYADLEALRSAITSSATGIPVLDNDKNFKNFEVEEFVEGPILHLDGIVQGGVIDTFVASTYEGTCLAFAEGEALGSYQIQTEPRLMDWAQAVITALAIDSGAFHLEVIESGERLVFLEIGHRAGGANVVRTFELRTGINLHHANLATQLRLPIHRQEVNTHKSYGWFVFPGHHYDWDKCRLEGHEDIKIHHQMFEWNQLSNEQPLTKHITYQKKEVPAAGIIQGDDSIQVQNFMQRVLQYIQVQEAV”, the “soluble on expression in E. coli” value is reported as “not soluble”.
With “MGSDKIHHHHHHMSKYESEVVVDGFHYLEGPRWYKDALWFVDFYTKGVYRVNDESVAEKIVHVEQQPSGLGWLPDGRMLIVSMKDRKVLRLEDNGELVVHADIWDHCEGHANDMVVAPNGNAYVGNFGFDLMGGADHKQTGLVLVKPDGNSQIVAEGLAFPNGMVISADEKTLIVNELFGNKISQFDINADGTLGEKRDFANFGDLGDEPNLGARIENANILPDGLALDSEGAVWIADTLNQRAVRISEGGEILDIVNTAPDGIFAVALGGQNGKTLFMCAAPDWDEASRTAETKGRMLSTQVKVGHAGTP” the “soluble on expression in E. coli” value was “not soluble”.
In the case of “MGSDKIHHHHHHMSLIFDIKRYAINDGPGIRITLFMKGCPLSCIWCHNPEGIRNGKDKLYTAKKCLGCGTCLKVCPNGALTLTPEGIITDKQKCVLCGRCAEECPAMAIEISGTEYTAEYLMHEIEKEIPFMDQSGGGVTFCGGEPLLHPEFLIDILKRCGQQGIHRAVDTTLLARKETVDEVMRNCELLLIDLKSMDSTVHQTFCDVPNELILKNIRRVAEADFPYYIRIPLIEGVNADEKNIKLSAEFLASLPRHPEIINLLPYHDIGKGKHAKLGSIYNPKGYKMQTPSEEVQQQCIQILTDYGLKATIGG”, the “soluble on expression in E. coli” value is reported as “not soluble”.
